{"source": "the supplement of paper PMC9170038"}
{"test_system": "MS2 coat protein", "assay": "apparent KD of MS2 coat protein; higher = weaker reporter binding", "conditions": "Eterna round: R107; input ligand: theophylline 20 uM", "how_it_was_run": "(§1)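 Binding of SNAP-549-labelled MS2 coat protein was measured on designed RNA switches transcribed on-chip from Illumina sequencing clusters. The protein rose in twofold steps from 0.7 or 1.5 nM to 3 µM, with 0.8–1.5 h per step early on and 10–20 min per step later, in 100 mM Tris-HCl pH 7.5, 80 mM KCl, 4 mM MgCl2, without or with constant ligand. Each design's apparent KD is the median of fits to its normalised cluster binding curves.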", "units": {"apparent KD of MS2 coat protein": "nM"}}
{"sequence": "ACAUGAGGAUCACCCAUGUAGCCUAGGGAAGGAGCGGCAUAAAAGCCAGGUAGGUCGCCCGCAUGAGGAUCACCCAUGUCAAGGA [Same State Arginine A GF7]", "apparent KD of MS2 coat protein": 81.7}
{"sequence": "UUAUCUAUAUUCGAUACCAGUACCCUGGCCGCAAAUCCUAACAUGAGGAUCACCCAUGUGUACCCUUGGCAGCGGGUAUGGGUUU [XTheo B #29]", "apparent KD of MS2 coat protein": 35.1}
{"sequence": "ACGAUAGGACACGAGGAUCACCCGUGUGAUACCAGCCUGGAAACAGGCCCUUGGCAGCACAAAUACUCCAAUAACCUAUCGAAUA [TheoAX 10 #MicroSwitchBubble #AlternativeMS2]", "apparent KD of MS2 coat protein": 183}
{"sequence": "AAUAUUAACUGAAGGAGCGUGUUAUGUACAUGAGGAUCACCCAUGUAUAGGGUAAUACUAACACAGGUAGGUCGCAGAAUAAUUA [JR_SSArginiB_Sub010]", "apparent KD of MS2 coat protein": 37.9}
{"sequence": "UGUAUGGACUGAAGGAGCGGAAGAUACCAUGAGGAUCACCCAUGGAAUAAGGCGAAAGCCUUCCAGGUAGGUCGCAGUCCAUACU", "apparent KD of MS2 coat protein": 23.9}
{"sequence": "GAGGUCCUGAGAGAUACCAGUGAGGCCACAUGAGGAUCACCCAUGUCCCUCACUCCGGCCCACCCUUGGCAGCUCGGAAGGUAAA [Exclusion Theophylline B GF 23]", "apparent KD of MS2 coat protein": 29.7}
{"sequence": "AUACAUGAGGAUCACCCAUGUCAUUCAGAAGGAGCGUCAUUUUAGACAGGUAGGUCGCUGAUAGUAUUUUUAUACUUUAUGUUUA [JR_SSArginiA_Sub015]", "apparent KD of MS2 coat protein": 29.3}
{"sequence": "AAGGGUGAGUCUCUAAUCCGUUUGACGGAUACCAGCGAGAGAUAUCGCCCUUGGCAGCCGACGACAUGAGGAUCACCCAUGUAAA [Exclusion - Theophylline A]", "apparent KD of MS2 coat protein": 22}
{"sequence": "AAAUGAAGGCGAAGGAGCGGGAACAUGAGGAUCACCCAUGUGUAUGUAUGUAGUCAUGUAUCUCAGGUAGGUCGCGCUGUUACAU [Exclusion Arginine B 2]", "apparent KD of MS2 coat protein": 178}
{"sequence": "UAUCCACAUGAGGAUCACCCAUGUUAGGAAGGAGCGGUGAAUGAACCAGGUAGGUCGCCUAGCUGAGGACCAUCAAUGGAUUCGU [Exclusion - Arginine A (Freestyle 14)]", "apparent KD of MS2 coat protein": 35.4}
{"sequence": "UGAUGGUGCGGAAGGAGCGUGUAAGAACAAGAACAUGAGGAUCACCCAUGUAUUAAUUUAACACAGGUAGGUCGCCGUGUUAUUG [11.K]", "apparent KD of MS2 coat protein": 39.3}
{"sequence": "UAUCGUCAGACGGCCGCCACUAGAACAUGAGGAUCACCCAUGUAGGCGGCCGAUUCCUCAUGAACUAGGACCGGGUCUGACGAAU [(Trp1)-(Ms2)-(T)'-(M)'-(Trp2)_Design12]", "apparent KD of MS2 coat protein": 26}
{"sequence": "CAGAGACAUGAGGAUCACCCAUGUUGAGAUACCAGCUUGGUAUCGAGCCCUUGGCAGCUCGCCCAUCGUCUAUAUCAGCCUGAGC [theeternabot_sameState_MS2_Theo_A_40]", "apparent KD of MS2 coat protein": 18.9}
{"sequence": "UCGACAAGAACAAUAAACAGCACUUGAGAAGGAGCGCGGAAAUCCGCAGGUAGGUCGCUCAUGUGUACAUGAGGAUCACCCAUGU [Inveonxeed]", "apparent KD of MS2 coat protein": 49.3}
{"sequence": "AGACAUGAGGAUCACCCAUGUAGCAUGGAUACCAGAUGUAGAUUAGUCCCUUGGCAGCUGUGGUAAAGUGAUGCAUUGCUCCUAG [Exclusion - Theophylline A (Freestyle 3)]", "apparent KD of MS2 coat protein": 55.3}
{"sequence": "AUUACAUGGAUUACAACUAAAUCAACUGAAGGAGCGUGAAGGAUCACAGGUAGGUCGCAGUACAUGAGGAUCACCCAUGUUAUAA [JR_Nu_SSArginiA_Sub021]", "apparent KD of MS2 coat protein": 48.5}
{"sequence": "AUGCCUAGUGGAAGGAGCGAGGGUCUUCUCAACAUGAGGAUCACCCAUGUUCUUUUAUACCCUCAGGUAGGUCGCCAUUGGGACA [Anenre]", "apparent KD of MS2 coat protein": 33.6}
{"sequence": "ACCUGUACGAAAAGUGCAGGACACGGAUAACGAGGACCGGUACGGCCGCCACUCGGAAUAACCUGAGGAUCACCCUGGUACCGUG [TrypAS 8 #AlternativeMS2 #Zipper #StaticStem]", "apparent KD of MS2 coat protein": 24}
{"sequence": "GUUGGAUGCUCGGCCGCCACUGAGAGAGUCAUGUGAACAUGAGGAUCACCCAUGUAAUAUAUAUACAGGACCGGGAGUGUUGUAA [4.J]", "apparent KD of MS2 coat protein": 50.6}
{"test_system": "MS2 coat protein", "assay": "apparent KD of MS2 coat protein; higher = weaker reporter binding", "conditions": "Eterna round: R107; input ligand: theophylline 2 mM", "how_it_was_run": "as §1", "units": {"apparent KD of MS2 coat protein": "nM"}}
{"sequence": "AAUCAUGGAAACAUGACAUGAGGGUUACUCCGAGGACCGGUACGGCCGCCACUCGCGAGGAGGCGGACAUGAGGAUCACCCAUGU [#04 Tryptophan A Same State]", "apparent KD of MS2 coat protein": 260}
{"sequence": "ACAUGAGGAUCACCCAUGUUUGAUGUUCCUCGAGGACCGGUACGGCCGCCACUCGAACGAGUGGCGCGCGCGCGCGCGCGCGCGC [aQa]", "apparent KD of MS2 coat protein": 14.5}
{"sequence": "CACUACAUGAGGAUCACCCAUGUCUUCCGACGAGGACCGGUACGGCCGCCACUCGAACCUCCAACUAAUACCUCAACCGUCUGAU [theeternabot_sameState_MS2_Trp_A_25]", "apparent KD of MS2 coat protein": 101}
{"sequence": "GCGGAAUAAUCGGCCGCCACUAUGAUAUAGGAAACUAUAACAUGAGGAUCACCCAUGUAUCCUCAUAGGACCGGGAUUAAAACGC [TrypB - CS]", "apparent KD of MS2 coat protein": 101}
{"sequence": "CGAAAGCAGUGAUCCAGCUUUCGCCUGGAAGGAGCGAGCGAAAGCUCAGGUAGGUCGCCAGAAACAUGAGGAUCACCCAUGUAAU [(A)''-(M)'-(A)'-(Arg1)-(Arg2)-(M1)-(M2)_Design8]", "apparent KD of MS2 coat protein": 145}
{"sequence": "UCGCUCUGGGUGAAUCCCAGAGAUAUGGAAGGAGCGGACGAAAGUCCAGGUAGGUCGCCAUCGAACAUGAGGAUCACCCAUGUAC [Same State - Arginine A (Freestyle 27)]", "apparent KD of MS2 coat protein": 76.6}
{"sequence": "AAUGUGAUAGUCGUACUCUCACACUGAGAAGGAGCGCGAAAGUUCGCAGGUAGGUCGCUCAGUUAUACAUGAGGAUCACCCAUGU [Edgeised]", "apparent KD of MS2 coat protein": 27.3}
{"sequence": "UGGAGAUAGACGGCCGCCACUAACAUGAGGAUCACCCAUGUCGUCACGAAUGGAUGGCCCUAGAAUAGGACCGGGUCCGGAUUCA [theeternabot_exclusion_MS2_Trp_B_48]", "apparent KD of MS2 coat protein": 50.6}
{"sequence": "GGGCGCUAUCCCGCGAGGGAUAGCGUUCGACGAGGACCGGUACGGCCGCCACUCGAACGAGUGGGUACAUGAGGAUCACCCAUGU [Gaa]", "apparent KD of MS2 coat protein": 33.3}
{"sequence": "GUAAUUUUAAGAAGGAGCGUCGAAAAUGGGUAAACAUGAGGAUCACCCAUGUAAAGGGAACGACAGGUAGGUCGCUUAGGAUUAC [AstromonsSSArgB#23]", "apparent KD of MS2 coat protein": 220}
{"sequence": "AAACAUGAGGCGGCCGCCACUGUAUGAACAUGAGGAUCACCCAUGUAUGUACCCAUGUGUGUACACAGGACCGGGCCAUGUGGAU [Exclusion Tryptophan B 4]", "apparent KD of MS2 coat protein": 27.8}
{"sequence": "GCGGAAUAAUCGGCCGCCACUAUGAGACAGGAAACUGUCACAUGAGGAUCACCCAUGUAUCCUCAUAGGACCGGGAUUAAAACGC [Melting point difference]", "apparent KD of MS2 coat protein": 100}
{"sequence": "CUAAGAGUAGGAAGGAGCGACAUGAGGAUCACCCAUGUGGCUCUCAUGGCCCGGGUCUUAUGUCAGGUAGGUCGCCUACUGUUUA [Solave]", "apparent KD of MS2 coat protein": 17.1}
{"sequence": "UAUACAUGAGGAUCACCCAUGUGCCAUGAUACCAGACAUGAAAAUGUCCCUUGGCAGCAUGGGAGAUGUAUAGCGGGAAACCCGA [Turany]", "apparent KD of MS2 coat protein": 677}
{"sequence": "GAUUUAACAAAAGUUGGAUCAGUGGGUGAACGAGGACCGGUACGGCCGCCACUCGGACAUGAGGAUCACCCAUGUCCAUGUGAAA [AstrosExyTryA#19]", "apparent KD of MS2 coat protein": 121}
{"sequence": "UGAUAUGUGGGAAGGAGCGCAUACUUCACAUGAGGAUCACCCAUGUCAAGACGUGAGUCAGUGCAGGUAGGUCGCCUAGUUAUGA [Same State - Arginine B (Freestyle 19)]", "apparent KD of MS2 coat protein": 147}
{"sequence": "ACAUGAGGAUCACCCAUGUAGCCUAGGGAAGGAGCGGCAUAAAAGCCAGGUAGGUCGCCCGCAUGAGGAUCACCCAUGUCAAGGA [Same State Arginine A GF7]", "apparent KD of MS2 coat protein": 74.9}
{"sequence": "ACGAUAGGACACGAGGAUCACCCGUGUGAUACCAGCCUGGAAACAGGCCCUUGGCAGCACAAAUACUCCAAUAACCUAUCGAAUA [TheoAX 10 #MicroSwitchBubble #AlternativeMS2]", "apparent KD of MS2 coat protein": 569}
{"sequence": "AAUAUUAACUGAAGGAGCGUGUUAUGUACAUGAGGAUCACCCAUGUAUAGGGUAAUACUAACACAGGUAGGUCGCAGAAUAAUUA [JR_SSArginiB_Sub010]", "apparent KD of MS2 coat protein": 22}
{"sequence": "UGUAUGGACUGAAGGAGCGGAAGAUACCAUGAGGAUCACCCAUGGAAUAAGGCGAAAGCCUUCCAGGUAGGUCGCAGUCCAUACU", "apparent KD of MS2 coat protein": 23.9}
{"sequence": "AUACAUGAGGAUCACCCAUGUCAUUCAGAAGGAGCGUCAUUUUAGACAGGUAGGUCGCUGAUAGUAUUUUUAUACUUUAUGUUUA [JR_SSArginiA_Sub015]", "apparent KD of MS2 coat protein": 23.3}
{"sequence": "AAAUGAAGGCGAAGGAGCGGGAACAUGAGGAUCACCCAUGUGUAUGUAUGUAGUCAUGUAUCUCAGGUAGGUCGCGCUGUUACAU [Exclusion Arginine B 2]", "apparent KD of MS2 coat protein": 207}
